In assay [1] the target is T1, Human CLEC12A-His (human, UniProt Q5QGZ9 65-265).
T1 construct: Recombinant soluble protein made in house; also called hCLEC12A-His; hCLEC12A; not shown: His tag
T1 sequence: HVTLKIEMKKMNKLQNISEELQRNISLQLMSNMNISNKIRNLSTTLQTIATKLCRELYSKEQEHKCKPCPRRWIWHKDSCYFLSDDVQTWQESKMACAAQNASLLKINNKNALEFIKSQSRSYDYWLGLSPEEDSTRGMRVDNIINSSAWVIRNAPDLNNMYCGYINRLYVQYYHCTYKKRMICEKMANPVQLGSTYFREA
Kind of assay: SPR, 37 C, AB0192 captured, hCLEC12A-His analyte. (In SPR one partner is held on a chip, and binding of the other changes the refractive index at the surface.)

A further assay deals with T2, mFc-hNKG2D (human, UniProt P26718 73-216).
T2 construct: extracellular domain; Recombinant mFc-tagged NKG2D dimer, made in house; also called human NKG2D; not shown: mouse Fc tag
T2 sequence (looked up): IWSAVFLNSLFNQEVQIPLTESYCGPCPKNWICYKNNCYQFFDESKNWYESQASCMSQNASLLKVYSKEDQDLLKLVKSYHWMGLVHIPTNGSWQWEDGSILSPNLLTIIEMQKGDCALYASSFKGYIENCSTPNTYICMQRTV
In words: SPR, 37 C, mFc-hNKG2D captured, steady state fit; average.

Assay [2] concerns the target T1, Human CLEC12A-His. In words: SPR; taken as the sample after forced oxidation (0.02% H2O2, 24 h).
Assay [3] addresses T3, human CLEC12A expressed on cells (human, UniProt Q5QGZ9 1-265).
T3 construct: Transduced isogenic cells or endogenous expression on AML cells; also called RMA-hCLEC12A; Ba/F3-hCLEC12A
T3 sequence: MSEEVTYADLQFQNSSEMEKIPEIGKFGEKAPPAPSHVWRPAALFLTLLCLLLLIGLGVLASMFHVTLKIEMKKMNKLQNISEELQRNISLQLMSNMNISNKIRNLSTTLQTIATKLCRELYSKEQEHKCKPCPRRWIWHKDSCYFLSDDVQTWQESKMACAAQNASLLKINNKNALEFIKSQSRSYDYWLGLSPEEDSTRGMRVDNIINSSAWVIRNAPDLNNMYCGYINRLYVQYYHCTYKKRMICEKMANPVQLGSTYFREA
In words: flow cytometry, HL60. In general terms: Flow cytometry measures light scatter and fluorescence of single cells or particles in a stream.

Another assay deals with T4, recombinant human CD64 (human, UniProt P12314 16-288, biotinylated).
T4 construct: also called hFcγRI; hCD64
T4 sequence (P12314 16-288 limits assumed): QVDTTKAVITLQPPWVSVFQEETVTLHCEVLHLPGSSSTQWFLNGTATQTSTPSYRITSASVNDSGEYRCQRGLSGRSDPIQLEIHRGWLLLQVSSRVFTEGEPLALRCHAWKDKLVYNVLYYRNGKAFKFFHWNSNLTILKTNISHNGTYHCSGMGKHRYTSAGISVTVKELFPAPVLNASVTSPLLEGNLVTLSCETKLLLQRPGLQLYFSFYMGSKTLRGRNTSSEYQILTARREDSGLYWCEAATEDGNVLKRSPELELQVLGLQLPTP
In words: SPR 25C, kinetic fit.

For another assay, the target named is T5, recombinant human CD32b (human, UniProt P31994 46-217, limits assumed, biotinylated).
T5 construct: also called FcγRIIb
T5 sequence (looked up): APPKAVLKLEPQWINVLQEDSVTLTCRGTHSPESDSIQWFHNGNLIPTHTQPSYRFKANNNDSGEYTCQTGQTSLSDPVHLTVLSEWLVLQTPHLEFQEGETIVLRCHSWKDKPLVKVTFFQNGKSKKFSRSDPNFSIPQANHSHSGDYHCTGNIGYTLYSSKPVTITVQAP
Kind of assay: SPR 25C, steady state.

Assay [4] deals with T3, human CLEC12A expressed on cells. Kind of assay: flow cytometry, hCLEC12A+ Ba/F3.
Assay [5] shares this target. Kind of assay: flow cytometry, hCLEC12A+ Ba/F3. The source holds these as a separate data set.
The target of another assay is T6, BCMA.
T6 chain: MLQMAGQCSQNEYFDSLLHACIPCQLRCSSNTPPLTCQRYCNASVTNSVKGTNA
In words: SPR specificity test; unrelated recombinant antigen at up to 500 nM.

Another assay deals with HER2. Described as above.
A further assay deals with T7, CD33.
T7 construct: recombinant protein
The assay is described as above.

Several values for one entry are separate records, joined by “and”; a condition that tells them apart may be missing. Identical values can stand only once.

Text for mFc-hNKG2D: NKG2D is a dimer in nature, therefore recombinant mFc-tagged NKG2D dimer was used for this experiment. […] Two different fits were utilized to obtain the equilibrium affinity data: steady state affinity fit and kinetic fit.
Experimental for recombinant human CD64: Human and cyno CD64, high and low affinity alleles of CD16a (V158 and F158, respectively), two alleles of CD32a (H131 and R131), CD16b, CD32b and cynomolgus CD16 were captured via biotin on a primed Biacore chip, prepared according to the manufacturer's instructions.
For no-signal reference, a 0 nM blank cycle at the start of each concentration series and receptor free chip surface were used. Each experimental cycle included association, dissociation and regeneration steps. All steps were executed at a flow rate of 30 μL/min and at 25° C.

B1: AB0192 TriNKET (other)
chain: EVQLVESGGGVVQPGGSLRLSCAASGFTFNAFGMHWVRQAPGKCLEWVAFISSGSTSIYYANTVKGRFTISRDNSKNTLYLQMNSLRAEDTAVYYCARDGYPTGGAMDYWGQGTSVTVSSGGGGSGGGGSGGGGSGGGGSDIQMTQSPSSLSASVGDRVTITCKASQDIYNYLSWFQQKPGKAPKPLIYRANILVSGVPSRFSGSGSGQDYTFTISSLQPEDIATYYCLQFDAFPFTFGCGTKLEIKGSDKTHTCPPCPAPELLGGPSVFLFPPKPKDTLMISRTPEVTCVVVDVSHEDPEVKFNWYVDGVEVHNAKTKPREEQYNSTYRVVSVLTVLHQDWLNGKEYKCKVSNKALPAPIEKTISKAKGQPREPRVYTLPPCRDELTKNQVSLTCLVKGFYPSDIAVEWESNGQPENNYKTTPPVLVSDGSFTLYSKLTVDKSRWQQGNVFSCSVMHEALHNHYTQKSLSLSPG
heavy: EVQLVESGGGLVKPGGSLRLSCAASGFTFSSYSMNWVRQAPGKGLEWVSSISSSSSYIYYADSVKGRFTISRDNAKNSLYLQMNSLRAEDTAVYYCARGAPIGAAAGWFDPWGQGTLVTVSSASTKGPSVFPLAPSSKSTSGGTAALGCLVKDYFPEPVTVSWNSGALTSGVHTFPAVLQSSGLYSLSSVVTVPSSSLGTQTYICNVNHKPSNTKVDKKVEPKSCDKTHTCPPCPAPELLGGPSVFLFPPKPKDTLMISRTPEVTCVVVDVSHEDPEVKFNWYVDGVEVHNAKTKPREEQYNSTYRVVSVLTVLHQDWLNGKEYKCKVSNKALPAPIEKTISKAKGQPREPQVCTLPPSRDELTENQVSLTCLVKGFYPSDIAVEWESNGQPENNYKTTPPVLDSDGSFFLYSWLTVDKSRWQQGNVFSCSVMHEALHNHYTQKSLSLSPG
light: DIQMTQSPSSVSASVGDRVTITCRASQGISSWLAWYQQKPGKAPKLLIYAASSLQSGVPSRFSGSGSGTDFTLTISSLQPEDFATYYCQQGVSFPRTFGGGTKVEIKRTVAAPSVFIFPPSDEQLKSGTASVVCLLNNFYPREAKVQWKVDNALQSGNSQESVTEQDSKDSTYSLSSTLTLSKADYEKHKVYACEVTHQGLSSPVTKSFNRGEC
notes: the condition stands under assay; also called AB0192 Lot AB0192-005
What is called Kd is a measure of binding affinity in units of concentration. The koff is the first-order rate constant of dissociation. By kon is commonly meant a measure of how fast the partners come together. As to B1, in the assay with Human CLEC12A-His [1], the Kd is 1.72 nM and 1.99 nM and 1.71 nM; the off-rate constant (koff) is 0.00136 s⁻¹ and 0.00151 s⁻¹ and 0.00134 s⁻¹; the kon was 787000 M⁻¹ s⁻¹ and 757000 M⁻¹ s⁻¹ and 785000 M⁻¹ s⁻¹. The molecule also showed a Kd with mFc-hNKG2D of 781 nM. In the assay with Human CLEC12A-His [2], this molecule registered a Kd of 1.71 nM, a koff of 0.00132 s⁻¹ and an on-rate constant (kon) of 775000 M⁻¹ s⁻¹.

B2: F3'-1602 TriNKET (other)
chain: QLQLQESGPGLVKPSETLSLTCTVSGFSLTNYGLHWIRQPPGKCLEWIGVIWSGGKTDYNPSLKSRVTISKDTSKNQFSLKLSSVQAADTAVYYCAKYDYDDSLDYWGQGTLVTVSSGGGGSGGGGSGGGGSGGGGSDIQMTQSPSSLSASVGDRVTITCHASQNINFWLSWYQQKPGKAPKLLIYEASNLHTGVPSRFSGSGSGTRFTLTISSLQPEDIATYYCQQSHSYPLTFGCGTKLEIKGSDKTHTCPPCPAPELLGGPSVFLFPPKPKDTLMISRTPEVTCVVVDVSHEDPEVKFNWYVDGVEVHNAKTKPREEQYNSTYRVVSVLTVLHQDWLNGKEYKCKVSNKALPAPIEKTISKAKGQPREPRVYTLPPCRDELTKNQVSLTCLVKGFYPSDIAVEWESNGQPENNYKTTPPVLVSDGSFTLYSKLTVDKSRWQQGNVFSCSVMHEALHNHYTQKSLSLSPG
heavy: EVQLVESGGGLVKPGGSLRLSCAASGFTFSSYSMNWVRQAPGKGLEWVSSISSSSSYIYYADSVKGRFTISRDNAKNSLYLQMNSLRAEDTAVYYCARGAPIGAAAGWFDPWGQGTLVTVSSASTKGPSVFPLAPSSKSTSGGTAALGCLVKDYFPEPVTVSWNSGALTSGVHTFPAVLQSSGLYSLSSVVTVPSSSLGTQTYICNVNHKPSNTKVDKKVEPKSCDKTHTCPPCPAPELLGGPSVFLFPPKPKDTLMISRTPEVTCVVVDVSHEDPEVKFNWYVDGVEVHNAKTKPREEQYNSTYRVVSVLTVLHQDWLNGKEYKCKVSNKALPAPIEKTISKAKGQPREPQVCTLPPSRDELTENQVSLTCLVKGFYPSDIAVEWESNGQPENNYKTTPPVLDSDGSFFLYSWLTVDKSRWQQGNVFSCSVMHEALHNHYTQKSLSLSPG
light: DIQMTQSPSSVSASVGDRVTITCRASQGISSWLAWYQQKPGKAPKLLIYAASSLQSGVPSRFSGSGSGTDFTLTISSLQPEDFATYYCQQGVSFPRTFGGGTKVEIKRTVAAPSVFIFPPSDEQLKSGTASVVCLLNNFYPREAKVQWKVDNALQSGNSQESVTEQDSKDSTYSLSSTLTLSKADYEKHKVYACEVTHQGLSSPVTKSFNRGEC
notes: CLEC12A scFv-Fc, NKG2D A49MI Fab-Fc, human IgG1 Fc; also called AB0237
Usually EC50 stands for the midpoint of the concentration-response curve. Lower therefore signals an effect from little substance. Take B2: the 50% effective concentration (EC50) in [3] came out at 2.2 nM; in [5] it was 14.4 nM. Further, the dissociation constant (Kd) was 5.2 nM and 5.3 nM in the assay with recombinant human CD64; 7200 nM and 6100 nM and 6900 nM with recombinant human CD32b. In addition, the koff in the assay with recombinant human CD64 is 0.00027 s⁻¹ and 0.00028 s⁻¹ and 0.00026 s⁻¹. In addition, in the assay with recombinant human CD64, the on-rate (kon) is 53000 M⁻¹ s⁻¹ and 52000 M⁻¹ s⁻¹ and 51000 M⁻¹ s⁻¹. Also, in assay [4], the “fold lower EC50 than F3'-1295” value was about 2 fold. Moreover, the “Max MFI” value in assay [5] came out at 50200 MFI. Further, the “Response (RU)” value with BCMA amounted to 0.2 RU; in the assay with HER2, 0.1 RU; with CD33, 0.2 RU.

For the origin of these results see patent US20220119534A1 (DRAGONFLY THERAPEUTICS, published 2022).
